Here are results for four molecules from PMC7150778 (2020).

Where two headings read alike, the source gives them in different places.

The target of test [1] is p85β iSH2 (UniProt O00459). The conditions noted are these: cited from earlier work.
Test [2] concerns the target NS1 ED (Influenza A virus) (UniProt P69278). The conditions noted are these: cited from earlier work.
For test [3], the target named is T1, p85β iSH2 (UniProt O00459).
T1 chain: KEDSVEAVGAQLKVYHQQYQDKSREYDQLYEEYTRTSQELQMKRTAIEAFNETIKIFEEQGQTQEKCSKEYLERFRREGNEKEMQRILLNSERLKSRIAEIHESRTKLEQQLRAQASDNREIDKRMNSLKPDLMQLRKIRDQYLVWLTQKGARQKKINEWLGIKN

Consider 1918 NS1 ED-CTT (from UniProt Q0PDM0), for which the Kd (commonly the concentration at which binding is half-saturated) in the test with p85β iSH2 [1] was 300 nM. NS1 ED (from UniProt P69278): in test [2], the Kd was 89000 nM.

B1: 1918 NS1 ED-ΔCTT (protein)
chain: TMASVPASRYLTDMTLEELSRDWSMLIPKQKVAGPLCIRMDQAIMDKNIILKANFSVIFDRLETLILLRAFTEEGAIVGEISPLPSLPGHTAEDVKNAVGVLIGGLEWNDNTVRVSETLQRFAWRSSNENGRPPLTPKQKREMAGTIRSEV
B1 yielded a Kd with p85β iSH2 [3] of 370 nM.

B2: 1918 NS1 ED-CTT (protein)
chain: B1 chain
In the test with p85β iSH2 [3], B2 displayed a dissociation constant Kd of 700 nM.
